In patent US20190381086A1 (Scripps Research, published 2019) one finds binding result and Kd data, which are given here for four molecules.

Test [1] concerns the target T1, GlyRS in HEK293 cells (endogenous) (human, UniProt P41250 55-739, limits assumed).
T1 sequence: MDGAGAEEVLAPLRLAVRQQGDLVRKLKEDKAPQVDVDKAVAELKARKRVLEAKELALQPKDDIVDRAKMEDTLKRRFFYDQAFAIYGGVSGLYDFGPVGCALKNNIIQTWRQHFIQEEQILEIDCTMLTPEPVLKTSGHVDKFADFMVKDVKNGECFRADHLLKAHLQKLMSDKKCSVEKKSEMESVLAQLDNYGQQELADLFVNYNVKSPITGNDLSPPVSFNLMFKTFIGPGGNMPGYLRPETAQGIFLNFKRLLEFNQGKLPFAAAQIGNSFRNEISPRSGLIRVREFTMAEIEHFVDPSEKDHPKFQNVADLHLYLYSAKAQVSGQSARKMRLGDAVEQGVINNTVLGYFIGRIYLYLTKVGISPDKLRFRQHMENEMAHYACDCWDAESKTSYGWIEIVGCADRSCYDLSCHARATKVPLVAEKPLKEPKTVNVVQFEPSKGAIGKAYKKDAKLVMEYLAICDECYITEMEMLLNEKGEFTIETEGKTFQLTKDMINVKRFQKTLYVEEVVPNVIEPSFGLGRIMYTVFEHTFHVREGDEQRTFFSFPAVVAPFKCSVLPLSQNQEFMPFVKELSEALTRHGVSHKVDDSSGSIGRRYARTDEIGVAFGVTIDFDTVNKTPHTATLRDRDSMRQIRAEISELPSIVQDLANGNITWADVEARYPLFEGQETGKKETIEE
In words: co-immunoprecipitation, HEK293 cells.

For test [2], the target named is T2, GST-APPBP1 (UniProt Q13564 1-534, limits assumed).
T2 construct: Fractions of a Superdex 200 run of GST-APPBP1/UBA3 that held only GST-APPBP1; also called APPBP1 subunit alone; E1 regulatory subunit APPBP1; not shown: GST tag
T2 sequence (looked up): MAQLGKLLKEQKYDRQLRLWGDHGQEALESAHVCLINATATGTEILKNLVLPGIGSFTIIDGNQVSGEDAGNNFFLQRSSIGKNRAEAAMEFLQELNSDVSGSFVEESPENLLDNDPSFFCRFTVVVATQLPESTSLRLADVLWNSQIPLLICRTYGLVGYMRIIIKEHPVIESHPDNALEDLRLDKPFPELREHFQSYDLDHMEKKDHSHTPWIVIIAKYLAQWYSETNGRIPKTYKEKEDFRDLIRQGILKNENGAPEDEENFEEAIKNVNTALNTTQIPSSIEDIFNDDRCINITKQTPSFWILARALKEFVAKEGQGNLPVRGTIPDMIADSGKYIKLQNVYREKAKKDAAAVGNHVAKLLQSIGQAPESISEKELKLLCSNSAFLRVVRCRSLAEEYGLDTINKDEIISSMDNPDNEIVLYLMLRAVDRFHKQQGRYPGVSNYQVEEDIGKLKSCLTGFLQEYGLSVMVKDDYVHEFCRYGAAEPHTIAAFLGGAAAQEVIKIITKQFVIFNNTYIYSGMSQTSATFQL
As to the kind of experiment: biolayer interferometry, APPBP1 immobilized, ABD GlyRS 0.58-4.6 µM. In general terms: In BLI a coated tip is dipped into the sample, and binding shifts an interference pattern.

Test [3] deals with T3, E1 for neddylation, APPBP1/UBA3 heterodimer (UniProt Q13564 1-534; Q8TBC4 22-463).
T3 construct: GST-tagged or untagged preparations are mentioned; also called GST-APPBP1/UBA3; NAE; not shown: GST tag on APPBP1 (GST-APPBP1/UBA3)
T3 sequence (looked up) 1: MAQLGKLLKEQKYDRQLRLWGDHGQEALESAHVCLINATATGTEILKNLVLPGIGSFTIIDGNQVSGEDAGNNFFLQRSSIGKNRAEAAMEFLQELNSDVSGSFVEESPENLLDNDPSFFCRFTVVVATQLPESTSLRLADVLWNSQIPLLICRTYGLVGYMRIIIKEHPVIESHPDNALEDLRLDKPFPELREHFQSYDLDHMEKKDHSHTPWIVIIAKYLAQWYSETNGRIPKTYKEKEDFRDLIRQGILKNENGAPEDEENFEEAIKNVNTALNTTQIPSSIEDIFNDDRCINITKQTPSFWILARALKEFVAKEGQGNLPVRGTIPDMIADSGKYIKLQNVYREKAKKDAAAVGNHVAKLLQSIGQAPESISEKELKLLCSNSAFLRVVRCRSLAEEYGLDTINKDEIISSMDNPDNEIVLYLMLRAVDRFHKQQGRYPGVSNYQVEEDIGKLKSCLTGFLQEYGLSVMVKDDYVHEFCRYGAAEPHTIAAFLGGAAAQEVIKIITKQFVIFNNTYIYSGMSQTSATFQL
T3 sequence (looked up) 2: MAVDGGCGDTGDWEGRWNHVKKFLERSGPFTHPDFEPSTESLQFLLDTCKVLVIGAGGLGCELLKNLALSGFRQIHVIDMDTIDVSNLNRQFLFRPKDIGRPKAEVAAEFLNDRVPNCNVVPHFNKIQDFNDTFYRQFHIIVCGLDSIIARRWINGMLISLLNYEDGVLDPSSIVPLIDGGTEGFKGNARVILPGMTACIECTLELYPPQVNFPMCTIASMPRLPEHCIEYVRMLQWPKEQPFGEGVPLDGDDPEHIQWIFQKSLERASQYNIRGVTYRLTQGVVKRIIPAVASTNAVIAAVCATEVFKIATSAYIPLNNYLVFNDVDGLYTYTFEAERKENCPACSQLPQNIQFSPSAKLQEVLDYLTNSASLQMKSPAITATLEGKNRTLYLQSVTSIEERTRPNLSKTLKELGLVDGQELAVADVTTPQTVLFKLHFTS
As to the kind of experiment: biolayer interferometry, E1 (APPBP1/UBA3) immobilized, analyte 62.5-500 nM.

Test [4] has as its target T4, ubiquitin (UniProt P0CG48 1-76).
T4 construct: Bought protein
As to the kind of experiment: His-tag pull-down.

B1: APPBP1 in HEK293 cells (endogenous) (enzyme, UniProt Q13564 2-534, looked up)
chain: AQLGKLLKEQKYDRQLRLWGDHGQEALESAHVCLINATATGTEILKNLVLPGIGSFTIIDGNQVSGEDAGNNFFLQRSSIGKNRAEAAMEFLQELNSDVSGSFVEESPENLLDNDPSFFCRFTVVVATQLPESTSLRLADVLWNSQIPLLICRTYGLVGYMRIIIKEHPVIESHPDNALEDLRLDKPFPELREHFQSYDLDHMEKKDHSHTPWIVIIAKYLAQWYSETNGRIPKTYKEKEDFRDLIRQGILKNENGAPEDEENFEEAIKNVNTALNTTQIPSSIEDIFNDDRCINITKQTPSFWILARALKEFVAKEGQGNLPVRGTIPDMIADSGKYIKLQNVYREKAKKDAAAVGNHVAKLLQSIGQAPESISEKELKLLCSNSAFLRVVRCRSLAEEYGLDTINKDEIISSMDNPDNEIVLYLMLRAVDRFHKQQGRYPGVSNYQVEEDIGKLKSCLTGFLQEYGLSVMVKDDYVHEFCRYGAAEPHTIAAFLGGAAAQEVIKIITKQFVIFNNTYIYSGMSQTSATFQL
Consider B1, for which the binding result in test [1] is reported as “binds”.

B2: ABD (V541-E685) of GlyRS (enzyme)
chain: VREGDEQRTFFSFPAVVAPFKCSVLPLSQNQEFMPFVKELSEALTRHGVSHKVDDSSGSIGRRYARTDEIGVAFGVTIDFDTVNKTPHTATLRDRDSMRQIRAEISELPSIVQDLANGNITWADVEARYPLFEGQETGKKETIEE
notes: Cloned, expressed and purified in a similar way as the full-length GlyRS; also called ABD GlyRS; ABD domain alone
The Kd is a measure of binding affinity in units of concentration. Take B2: the Kd is 144 nM in test [2] and 187 nM in test [3].

B3: His-tagged human TrpRS (tryptophanyl-tRNA synthetase) (enzyme, UniProt P23381 1-471, looked up)
chain: MPNSEPASLLELFNSIATQGELVRSLKAGNASKDEIDSAVKMLVSLKMSYKAAAGEDYKADCPPGNPAPTSNHGPDATEAEEDFVDPWTVQTSSAKGIDYDKLIVRFGSSKIDKELINRIERATGQRPHHFLRRGIFFSHRDMNQVLDAYENKKPFYLYTGRGPSSEAMHVGHLIPFIFTKWLQDVFNVPLVIQMTDDEKYLWKDLTLDQAYSYAVENAKDIIACGFDINKTFIFSDLDYMGMSSGFYKNVVKIQKHVTFNQVKGIFGFTDSDCIGKISFPAIQAAPSFSNSFPQIFRDRTDIQCLIPCAIDQDPYFRMTRDVAPRIGYPKPALLHSTFFPALQGAQTKMSASDPNSSIFLTDTAKQIKTKVNKHAFSGGRDTIEEHRQFGGNCDVDVSFMYLTFFLEDDDKLEQIRKDYTSGAMLTGELKKALIEVLQPLIAEHQARRKEVTDEIVKEFMTPRKLSFDFQ
notes: not shown: His tag
In the case of B3, the binding result in test [4] is given as “no binding”.

B4: ΔWHEP GlyRS (enzyme)
chain: IVDRAKMEDTLKRRFFYDQAFAIYGGVSGLYDFGPVGCALKNNIIQTWRQHFIQEEQILEIDCTMLTPEPVLKTSGHVDKFADFMVKDVKNGECFRADHLLKAHLQKLMSDKKCSVEKKSEMESVLAQLDNYGQQELADLFVNYNVKSPITGNDLSPPVSFNLMFKTFIGPGGNMPGYLRPETAQGIFLNFKRLLEFNQGKLPFAAAQIGNSFRNEISPRSGLIRVREFTMAEIEHFVDPSEKDHPKFQNVADLHLYLYSAKAQVSGQSARKMRLGDAVEQGVINNTVLGYFIGRIYLYLTKVGISPDKLRFRQHMENEMAHYACDCWDAESKTSYGWIEIVGCADRSCYDLSCHARATKVPLVAEKPLKEPKTVNVVQFEPSKGAIGKAYKKDAKLVMEYLAICDECYITEMEMLLNEKGEFTIETEGKTFQLTKDMINVKRFQKTLYVEEVVPNVIEPSFGLGRIMYTVFEHTFHVREGDEQRTFFSFPAVVAPFKCSVLPLSQNQEFMPFVKELSEALTRHGVSHKVDDSSGSIGRRYARTDEIGVAFGVTIDFDTVNKTPHTATLRDRDSMRQIRAEISELPSIVQDLANGNITWADVEARYPLFEGQETGKKETIEE
notes: also called AWHEP GlyRS; core synthetase; not shown: His tag
For the molecule B4, the Kd in test [3] was 177 nM. This lies in the sub-micromolar range.
